In patent publication US20190077860A1 (EISAI R AND D MANAGEMENT, published 2019):

Experiments:
Experiment in all cases: ELISA
[1] = target: T1, human EphB1 extracellular region-SEAP-His protein (human, UniProt P54762 18-540)
T1 construct: extracellular domain; also called hEphB1-SEAP-His
T1 sequence (looked up): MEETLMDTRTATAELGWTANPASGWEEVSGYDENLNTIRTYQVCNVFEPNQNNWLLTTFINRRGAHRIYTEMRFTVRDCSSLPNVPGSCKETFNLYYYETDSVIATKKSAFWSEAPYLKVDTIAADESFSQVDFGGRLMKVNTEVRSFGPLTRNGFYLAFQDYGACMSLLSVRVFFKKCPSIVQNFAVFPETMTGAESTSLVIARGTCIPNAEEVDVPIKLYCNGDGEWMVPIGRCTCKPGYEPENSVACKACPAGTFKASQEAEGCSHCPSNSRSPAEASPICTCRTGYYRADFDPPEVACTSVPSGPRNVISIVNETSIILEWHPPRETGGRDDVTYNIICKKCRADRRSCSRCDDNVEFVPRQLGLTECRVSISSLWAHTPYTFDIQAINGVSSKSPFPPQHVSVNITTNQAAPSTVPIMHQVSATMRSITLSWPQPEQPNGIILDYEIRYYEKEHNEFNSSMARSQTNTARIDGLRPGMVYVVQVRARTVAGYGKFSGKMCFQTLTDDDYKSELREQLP

SEAP-His = SEAP-His (UniProt P05187 23-511)
[2] = target: T2, human EphA4 extracellular region-SEAP-His protein (human, UniProt P54764 20-547)
T2 construct: also called hEphA4-SEAP-His

[3] = target: T3, human EphA6 extracellular region-SEAP-His protein (human, UniProt Q9UF33 23-550)
T3 construct: extracellular domain; also called hEphA6-SEAP-His
T3 sequence (looked up): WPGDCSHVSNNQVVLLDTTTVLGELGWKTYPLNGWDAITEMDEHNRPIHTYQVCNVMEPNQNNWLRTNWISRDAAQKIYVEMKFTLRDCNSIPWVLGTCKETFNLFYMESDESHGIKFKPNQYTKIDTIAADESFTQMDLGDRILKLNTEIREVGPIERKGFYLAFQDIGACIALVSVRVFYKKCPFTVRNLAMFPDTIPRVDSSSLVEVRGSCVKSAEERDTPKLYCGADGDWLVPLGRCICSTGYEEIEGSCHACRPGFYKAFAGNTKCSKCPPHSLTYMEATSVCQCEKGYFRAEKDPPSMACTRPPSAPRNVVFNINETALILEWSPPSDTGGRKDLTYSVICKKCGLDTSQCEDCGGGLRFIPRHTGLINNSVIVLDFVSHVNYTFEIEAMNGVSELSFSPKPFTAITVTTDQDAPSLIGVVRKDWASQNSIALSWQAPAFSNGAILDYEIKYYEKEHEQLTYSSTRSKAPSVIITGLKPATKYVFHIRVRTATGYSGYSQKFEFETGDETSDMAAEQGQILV

[4] = target: T4, human EphA1 extracellular region-SEAP-His protein (human, UniProt P21709 26-547)
T4 construct: extracellular domain; also called hEphA1-SEAP-His
T4 sequence (looked up): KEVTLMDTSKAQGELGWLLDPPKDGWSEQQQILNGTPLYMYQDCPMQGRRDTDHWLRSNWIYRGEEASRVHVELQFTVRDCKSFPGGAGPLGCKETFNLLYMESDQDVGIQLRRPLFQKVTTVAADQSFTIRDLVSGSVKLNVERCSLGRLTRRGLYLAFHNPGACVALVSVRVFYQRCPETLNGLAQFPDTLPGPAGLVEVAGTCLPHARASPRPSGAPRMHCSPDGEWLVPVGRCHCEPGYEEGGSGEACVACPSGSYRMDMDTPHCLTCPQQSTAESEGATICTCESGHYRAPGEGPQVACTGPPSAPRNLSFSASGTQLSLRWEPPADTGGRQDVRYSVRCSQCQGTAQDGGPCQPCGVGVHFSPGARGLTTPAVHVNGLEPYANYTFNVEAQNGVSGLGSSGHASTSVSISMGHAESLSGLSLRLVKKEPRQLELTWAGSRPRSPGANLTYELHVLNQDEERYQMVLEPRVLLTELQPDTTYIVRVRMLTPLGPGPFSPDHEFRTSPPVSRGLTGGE

[5] = target: T5, human EphA3 extracellular region-SEAP-His protein (human, UniProt P29320 21-541)
T5 construct: extracellular domain; also called hEphA3-SEAP-His
T5 sequence (looked up): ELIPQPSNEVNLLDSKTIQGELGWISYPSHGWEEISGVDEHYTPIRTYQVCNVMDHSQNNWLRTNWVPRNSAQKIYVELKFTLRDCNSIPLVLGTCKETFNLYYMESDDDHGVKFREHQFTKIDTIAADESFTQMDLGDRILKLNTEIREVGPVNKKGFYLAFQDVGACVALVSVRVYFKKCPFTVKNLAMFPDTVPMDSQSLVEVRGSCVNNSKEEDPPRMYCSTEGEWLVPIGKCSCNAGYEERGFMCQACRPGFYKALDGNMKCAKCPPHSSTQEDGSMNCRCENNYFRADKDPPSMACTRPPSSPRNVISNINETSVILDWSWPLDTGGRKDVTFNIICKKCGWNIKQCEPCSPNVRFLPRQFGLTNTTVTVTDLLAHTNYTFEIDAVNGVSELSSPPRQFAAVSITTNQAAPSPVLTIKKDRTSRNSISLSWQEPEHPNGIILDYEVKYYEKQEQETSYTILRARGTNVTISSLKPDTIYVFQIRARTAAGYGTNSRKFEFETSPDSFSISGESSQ

T2 sequence (P54764 20-547): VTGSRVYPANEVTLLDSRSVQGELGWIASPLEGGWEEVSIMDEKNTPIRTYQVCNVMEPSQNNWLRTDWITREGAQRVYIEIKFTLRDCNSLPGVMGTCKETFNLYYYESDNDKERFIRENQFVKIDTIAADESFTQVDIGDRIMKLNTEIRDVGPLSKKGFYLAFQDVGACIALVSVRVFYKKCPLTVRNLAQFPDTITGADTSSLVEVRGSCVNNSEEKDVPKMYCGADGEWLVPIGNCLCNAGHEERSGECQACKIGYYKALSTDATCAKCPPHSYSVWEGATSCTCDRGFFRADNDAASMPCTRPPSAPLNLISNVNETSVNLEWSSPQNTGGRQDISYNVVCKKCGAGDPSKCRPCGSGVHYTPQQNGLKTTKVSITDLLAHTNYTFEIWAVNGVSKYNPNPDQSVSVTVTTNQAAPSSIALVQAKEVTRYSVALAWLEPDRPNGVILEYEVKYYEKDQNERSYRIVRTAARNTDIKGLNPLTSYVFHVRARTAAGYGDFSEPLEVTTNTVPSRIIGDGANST
SEAP-His, sequence (P05187 23-511): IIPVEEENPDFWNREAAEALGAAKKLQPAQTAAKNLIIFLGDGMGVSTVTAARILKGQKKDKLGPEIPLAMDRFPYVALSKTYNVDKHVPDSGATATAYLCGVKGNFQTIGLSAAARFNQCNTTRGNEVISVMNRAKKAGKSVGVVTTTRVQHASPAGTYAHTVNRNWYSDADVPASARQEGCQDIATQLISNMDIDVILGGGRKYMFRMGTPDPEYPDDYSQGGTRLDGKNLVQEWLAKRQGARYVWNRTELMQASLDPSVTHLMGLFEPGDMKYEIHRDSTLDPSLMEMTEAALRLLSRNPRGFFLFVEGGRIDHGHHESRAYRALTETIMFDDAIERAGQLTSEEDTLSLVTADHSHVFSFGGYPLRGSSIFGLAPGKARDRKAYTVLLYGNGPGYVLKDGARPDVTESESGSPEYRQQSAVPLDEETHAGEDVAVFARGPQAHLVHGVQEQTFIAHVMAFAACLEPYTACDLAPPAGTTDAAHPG

- A450 as % of hEphA4-SEAP-His [1]: 5.6%
- A450 as % of hEphA4-SEAP-His (SEAP-His): 5.5%
- A450 as % of hEphA4-SEAP-His [2]: 100%
- A450 as % of hEphA4-SEAP-His [3]: 9.8%
- A450 as % of hEphA4-SEAP-His [4]: 5.6%
- A450 as % of hEphA4-SEAP-His [5]: 5.5%
B1: humanized antibody No. 96 (antibody, human IgG1, kappa)
heavy: QVQLVQSGSELKKPGASVKVSCKASGYTFTDYSMHWVRQAPGQGLKWMGWINTETGEPTYADDFKGRFVFSLDTSVSTAYLQISSLKAEDTAVYYCARIPLYYYGSRYWYFDVWGQGTTVTVSSASTKGPSVFPLAPSSKSTSGGTAALGCLVKDYFPEPVTVSWNSGALTSGVHTFPAVLQSSGLYSLSSVVTVPSSSLGTQTYICNVNHKPSNTKVDKRVEPKSCDKTHTCPPCPAPPAAAPSVFLFPPKPKDTLMISRTPEVTCVVVDVSHEDPEVQFNWYVDGVEVHNAKTKPREEQFNSTFRVVSVLTVVHQDWLNGKEYKCKVSNKGLPAPIEKTISKTKGQPREPQVYTLPPSREEMTKNQVSLTCLVKGFYPSDIAVEWESNGQPENNYKTTPPMLDSDGSFFLYSKLTVDKSRWQQGNVFSCSVMHEALHNHYTQKSLSLSPG
light: EIVMTQSPATLSVSPGERATLSCRASENIYRNLAWYQQKPGQSPRLLIYAATNLADGIPARFSGSGSGTEYTLTISSLQSEDFAVYYCQHFWGTPWTFGQGTKVEIKRTVAAPSVFIFPPSDEQLKSGTASVVCLLNNFYPREAKVQWKVDNALQSGNSQESVTEQDSKDSTYSLSSTLTLSKADYEKHKVYACEVTHQGLSSPVTKSFNRGEC
notes: human Ig kappa; also called L2-4/HK2
